Measurements: patent publication US20260193326A1

Key:
Assay in all cases: SPR, AAV on CM5 chip
[1] = target: AAV5 (adeno-associated virus serotype 5)
[2] = target: AAV9 (adeno-associated virus serotype 9)
[3] = target: AAV8 (adeno-associated virus serotype 8)

B1: A4-C2 (VHH)
chain: VQLQESGGGLVQPGGSLRLSCAASGSAFSINTMGWYRQAPGKQRELVASVTPGGSTNYADSVKGRFTISRDNAKNTIYLQMNSLRPEDTAVYYCHLDEVRESSWTTSNLWGQGTQVTVSSGGGGSGGGGSGGGGSVQLQESGGGLVQPGGSLRLSCAASGSAFSINTMGWYRQAPGKQRELVASVTPGGSTNYADSVKGRFTISRDNAKNTIYLQMNSLRPEDTAVYYCHLDEVRESSWTTSNLWGQGTQVTVSSGGGGSGGGGSGGGGSVQLQESGGGLVQPGGSLRLSCAASGSAFSINTMGWYRQAPGKQRELVASVTPGGSTNYADSVKGRFTISRDNAKNTIYLQMNSLRPEDTAVYYCHLDEVRESSWTTSNLWGQGTQVTVSS
Which results are given for B1?
Kd [1]: 0.691 nM; koff [1]: 0.000134 s⁻¹; kon [1]: 194000 M⁻¹ s⁻¹; Kd [2]: 0.486 nM; koff [2]: 0.000125 s⁻¹; kon [2]: 257000 M⁻¹ s⁻¹; Kd [3]: 0.359 nM; koff [3]: 5e-05 s⁻¹; kon [3]: 139000 M⁻¹ s⁻¹

B2: A4-C3 (bispecific antibody)
chain: VQLQESGGGLVQPGGSLRLSCAASGSIFSINLMGWYRQAPGKQRELVATITRGGNTNYAGSVKGRFTISRDNAKNTVYLQMNSLRPEDTAVYYCHVDEVRQSSWTTSNLWGQGTQVTVSSGGGGSGGGGSGGGGSVQLQESGGGLVQPGGSLRLSCAASGSIFSINLMGWYRQAPGKQRELVATITRGGNTNYAGSVKGRFTISRDNAKNTVYLQMNSLRPEDTAVYYCHVDEVRQSSWTTSNLWGQGTQVTVSSGGGGSGGGGSGGGGSVQLQESGGGLVQPGGSLRLSCAASGSNFRINTMGWYRQAPGKQRELVATVTRGGSTNYADSVKGRFTISRDNPKDTVYLQMNSLRPEDTAVYYCHVDEVRESSWTTSNLWGQGTQVTVSS
With B2 as the binder, how does the Kd [1] read?
The Kd was 0.628 nM.

And the koff [1]?
Its koff is 9e-05 s⁻¹.

What about the kon [1] of the same binder?
The kon was 143000 M⁻¹ s⁻¹.

What about the Kd [2] of the same binder?
The Kd was 0.491 nM.

And the koff [2]?
Its koff is 9e-05 s⁻¹.

What about the kon [2] of the same binder?
Its kon is 183000 M⁻¹ s⁻¹.

What about the Kd [3] of the same binder?
Its Kd is 0.534 nM.

What about the koff [3] of the same binder?
Its koff is 4e-05 s⁻¹.

And the kon [3]?
The kon was 74900 M⁻¹ s⁻¹.

B3: A4-B2 (bispecific antibody)
chain: VQLQESGGGLVQAGGSLRLSCAASGSRFSINTMGWYRQAPGKQREFVATVTRGGNTNYAESVKGRFTISRDNAKNTVYLQMNSLRPEDTAVYYCHVDEVRDSSWTTSNIWGQGTQVTVSSGGGGSGGGGSGGGGSVQLQESGGGLVQAGGSLRLSCAASGSTFSINTMGWYRQAPGKQRELVATITRGGNTNYADSVKGRFTISRDNAKNTVYLQMNSLRPEDTAVYYCHVDEVRQSSWTTSNLWGQGTQVTVSS
With B3 as the binder, how does the Kd [1] read?
Its Kd is 7.38 nM.

What about the koff [1] of the same binder?
Its koff is 0.00117 s⁻¹.

What about the kon [1] of the same binder?
Its kon is 159000 M⁻¹ s⁻¹.

What about the Kd [2] of the same binder?
Its Kd is 8.35 nM.

What about the koff [2] of the same binder?
The koff was 0.0008 s⁻¹.

What about the kon [2] of the same binder?
The kon was 95800 M⁻¹ s⁻¹.

What about the Kd [3] of the same binder?
Its Kd is 1.02 nM.

And the koff [3]?
Its koff is 0.00014 s⁻¹.

What about the kon [3] of the same binder?
Its kon is 138000 M⁻¹ s⁻¹.

B4: A4-C1 (VHH)
chain: VQLQESGGGLVQPGGSLRLSCAASGSGFSINTMGWYRQAPGKQRELVATVTRDGSTNYADFVKGRFTISRDNAKNTVYLQMNSLRPEDTAVYYCHLDEVRESSWTTSNLWGQGTQVTVSSGGGGSGGGGSGGGGSVQLQESGGGLVQPGGSLRLSCAASGSGFSINTMGWYRQAPGKQRELVATVTRDGSTNYADFVKGRFTISRDNAKNTVYLQMNSLRPEDTAVYYCHLDEVRESSWTTSNLWGQGTQVTVSSGGGGSGGGGSGGGGSVQLQESGGGLVQPGGSLRLSCAASGSGFSINTMGWYRQAPGKQRELVATVTRDGSTNYADFVKGRFTISRDNAKNTVYLQMNSLRPEDTAVYYCHLDEVRESSWTTSNLWGQGTQVTVSS
With B4 as the binder, how does the Kd [1] read?
Its Kd is 13.2 nM.

What about the koff [1] of the same binder?
The koff was 0.00138 s⁻¹.

What about the kon [1] of the same binder?
Its kon is 104000 M⁻¹ s⁻¹.

And the Kd [2]?
Its Kd is 1.03 nM.

And the koff [2]?
Its koff is 1e-05 s⁻¹.

And the kon [2]?
The kon was 9690 M⁻¹ s⁻¹.

What about the Kd [3] of the same binder?
The Kd was 9.2 nM.

What about the koff [3] of the same binder?
Its koff is 0.00164 s⁻¹.

What about the kon [3] of the same binder?
The kon was 178000 M⁻¹ s⁻¹.

B5: A4-B1 (VHH)
chain: VQLQESGGGLVQPGGSLRLSCAASGSIFSINLMGWYRQAPGKQRELVATITRGGNTNYAGSVKGRFTISRDNAKNTVYLQMNSLRPEDTAVYYCHVDEVRQSSWTTSNLWGQGTQVTVSSGGGGSGGGGSGGGGSVQLQESGGGLVQPGGSLRLSCAASGSIFSINLMGWYRQAPGKQRELVATITRGGNTNYAGSVKGRFTISRDNAKNTVYLQMNSLRPEDTAVYYCHVDEVRQSSWTTSNLWGQGTQVTVSS
For B5, which Kd [1] is on record?
Its Kd is 0.102 nM.

And the koff [1]?
Its koff is 1.23e-05 s⁻¹.

What about the kon [1] of the same binder?
Its kon is 121000 M⁻¹ s⁻¹.

And the Kd [2]?
The Kd was 0.715 nM.

And the koff [2]?
Its koff is 0.00014 s⁻¹.

What about the kon [2] of the same binder?
Its kon is 196000 M⁻¹ s⁻¹.

And the Kd [3]?
The Kd was 1.63 nM.

And the koff [3]?
The koff was 0.000154 s⁻¹.

What about the kon [3] of the same binder?
Its kon is 94500 M⁻¹ s⁻¹.
